Experimental data published in PMC10397247.

How the values were obtained:
Assay in all cases: two-hybrid library CCmax;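 also: natural log of median RNA to DNA barcode read ratio; higher means stronger binding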
[1] = target: T1, 4H324-AA; conditions: mean of both orientations
T1 chain: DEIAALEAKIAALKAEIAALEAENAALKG

[2] = target: T2, 4H446-AA; conditions: mean of both orientations
T2 chain: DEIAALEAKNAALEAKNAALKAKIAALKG

[3] = target: T3, 4H3629-AA; conditions: mean of both orientations
T3 chain: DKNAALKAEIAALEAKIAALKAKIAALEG

[4] = target: T4, 4H464-AA; conditions: mean of both orientations
T4 chain: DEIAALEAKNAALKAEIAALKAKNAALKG

[5] = target: T5, 4H432-AA; conditions: mean of both orientations
T5 chain: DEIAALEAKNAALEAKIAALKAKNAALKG

[6] = target: 4H_GCN4
[7] = target: T6, O11-AA; conditions: mean of both orientations
T6 chain: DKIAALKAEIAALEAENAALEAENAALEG

[8] = target: T7, 4H3414-AA; conditions: mean of both orientations
T7 chain: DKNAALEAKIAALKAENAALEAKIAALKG

[9] = target: T8, 4H380-AA; conditions: mean of both orientations
T8 chain: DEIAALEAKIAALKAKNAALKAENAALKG

[10] = target: T9, 4H3915-AA; conditions: mean of both orientations
T9 chain: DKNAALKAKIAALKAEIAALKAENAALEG

[11] = target: T10, 4H63-AA; conditions: mean of both orientations
T10 chain: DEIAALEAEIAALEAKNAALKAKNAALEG

[12] = target: T11, 4H3129-AA; conditions: mean of both orientations
T11 chain: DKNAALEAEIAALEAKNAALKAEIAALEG

[13] = target: T12, 4H3619-AA; conditions: mean of both orientations
T12 chain: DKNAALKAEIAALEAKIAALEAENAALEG

[14] = target: T13, 4H3049-AA
T13 chain: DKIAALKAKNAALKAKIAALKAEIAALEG

[15] = target: T14, 4H3777-AA; conditions: mean of both orientations
T14 chain: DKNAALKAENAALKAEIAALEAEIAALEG

[16] = target: T15, 4H3939-AA; conditions: mean of both orientations
T15 chain: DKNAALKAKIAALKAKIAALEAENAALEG

[17] = target: T16, 4H3595-AA; conditions: mean of both orientations
T16 chain: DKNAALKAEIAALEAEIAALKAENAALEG

[18] = target: T17, 4H4038-AA; conditions: mean of both orientations
T17 chain: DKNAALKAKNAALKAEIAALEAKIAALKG

[19] = target: T18, 4H3974-AA; conditions: mean of both orientations
T18 chain: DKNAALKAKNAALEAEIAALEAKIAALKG

[20] = target: T19, 4H43-AA; conditions: mean of both orientations
T19 chain: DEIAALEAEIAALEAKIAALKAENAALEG

[21] = target: T20, 4H3969-AA; conditions: mean of both orientations
T20 chain: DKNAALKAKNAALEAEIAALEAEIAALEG

[22] = target: T21, 4H341-AA; conditions: mean of both orientations
T21 chain: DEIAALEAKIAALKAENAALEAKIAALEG

[23] = target: T22, 4H510-AA; conditions: mean of both orientations
T22 chain: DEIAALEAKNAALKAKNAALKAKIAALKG

[24] = target: T23, 4H337-AA; conditions: mean of both orientations
T23 chain: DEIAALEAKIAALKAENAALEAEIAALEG

[25] = target: T24, 4H_BCR; conditions: mean of both orientations
T24 chain: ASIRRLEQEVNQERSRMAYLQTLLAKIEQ

[26] = target: GCN2_T; conditions: mean of both orientations
[27] = target: T25, 4H3094-AA; conditions: mean of both orientations
T25 chain: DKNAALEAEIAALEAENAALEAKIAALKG

[28] = target: T26, 4H3625-AA; conditions: mean of both orientations
T26 chain: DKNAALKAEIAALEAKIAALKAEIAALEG

[29] = target: T27, 4H451-AA; conditions: mean of both orientations
T27 chain: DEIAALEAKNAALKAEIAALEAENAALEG

[30] = target: T28, 4H384-AA; conditions: mean of both orientations
T28 chain: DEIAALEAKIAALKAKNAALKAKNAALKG

[31] = target: T29, 4H483-AA; conditions: mean of both orientations
T29 chain: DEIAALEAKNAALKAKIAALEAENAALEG

[32] = target: T30, O14-AA; conditions: mean of both orientations
T30 chain: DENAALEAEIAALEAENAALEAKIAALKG

[33] = target: T31, 4H3449-AA; conditions: mean of both orientations
T31 chain: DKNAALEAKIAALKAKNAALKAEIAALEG

[34] = target: T32, O13-AA; conditions: mean of both orientations
T32 chain: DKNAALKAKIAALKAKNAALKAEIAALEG

[35] = target: T33, 4H3590-AA; conditions: mean of both orientations
T33 chain: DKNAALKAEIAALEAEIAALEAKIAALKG

[36] = target: T34, 4H3782-AA; conditions: mean of both orientations
T34 chain: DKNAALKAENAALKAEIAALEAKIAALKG

[37] = target: T35, 4H32-AA
T35 chain: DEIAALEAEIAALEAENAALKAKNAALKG

[38] = target: T36, 4H3587-AA
T36 chain: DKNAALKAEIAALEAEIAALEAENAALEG

[39] = target: T37, 4H_APH; conditions: mean of both orientations
T37 chain: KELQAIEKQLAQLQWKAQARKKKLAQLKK

[40] = target: T38, APC4336-AA; conditions: mean of both orientations
T38 chain: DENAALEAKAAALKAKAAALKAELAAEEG

[41] = target: T39, APC9806-AA; conditions: mean of both orientations
T39 chain: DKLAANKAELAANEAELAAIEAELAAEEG

[42] = target: T40, APC5531-AA; conditions: mean of both orientations
T40 chain: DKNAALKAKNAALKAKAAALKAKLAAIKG

[43] = target: T41, APC4100-AA; conditions: mean of both orientations
T41 chain: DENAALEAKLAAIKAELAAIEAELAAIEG

[44] = target: T42, APC9291-AA; conditions: mean of both orientations
T42 chain: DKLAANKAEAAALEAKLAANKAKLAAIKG

[45] = target: T43, APC9141-AA; conditions: mean of both orientations
T43 chain: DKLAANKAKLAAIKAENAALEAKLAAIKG

[46] = target: T44, APC2811-AA
T44 chain: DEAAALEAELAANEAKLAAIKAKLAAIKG

[47] = target: T45, APC7524-AA; conditions: mean of both orientations
T45 chain: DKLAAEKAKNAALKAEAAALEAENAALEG

[48] = target: T46, APC8516-AA; conditions: mean of both orientations
T46 chain: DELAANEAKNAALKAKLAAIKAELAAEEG

[49] = target: T47, APC2981-AA; conditions: mean of both orientations
T47 chain: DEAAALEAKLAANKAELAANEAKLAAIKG

[50] = target: T48, APC3323-AA; conditions: mean of both orientations
T48 chain: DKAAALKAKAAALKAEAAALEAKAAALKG

[51] = target: T49, APC542-AA; conditions: mean of both orientations
T49 chain: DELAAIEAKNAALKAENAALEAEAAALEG

[52] = target: T50, APC8401-AA; conditions: mean of both orientations
T50 chain: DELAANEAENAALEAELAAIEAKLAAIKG

[53] = target: T51, APC3265-AA; conditions: mean of both orientations
T51 chain: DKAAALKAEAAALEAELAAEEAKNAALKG

[54] = target: T52, APC3881-AA; conditions: mean of both orientations
T52 chain: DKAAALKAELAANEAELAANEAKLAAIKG

[55] = target: T53, APC5009-AA; conditions: mean of both orientations
T53 chain: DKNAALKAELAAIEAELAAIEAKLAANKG

[56] = target: T54, APC3354-AA; conditions: mean of both orientations
T54 chain: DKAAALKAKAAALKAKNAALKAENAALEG

[57] = target: T55, APC6088-AA; conditions: mean of both orientations
T55 chain: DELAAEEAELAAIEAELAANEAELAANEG

[58] = target: T56, APC9182-AA; conditions: mean of both orientations
T56 chain: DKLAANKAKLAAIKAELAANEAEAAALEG

Chain of 4H_GCN4 (chain, as listed by the source): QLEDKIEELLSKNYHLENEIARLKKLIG

Binder DKIAALKAKNAALKAKIAALKAEIAALEG [4H3049-AA] has an interaction score [1] of -0.645, an interaction score [2] of -0.416 and an interaction score [3] of -0.842. For the same binder, the interaction score [4] was 0.452, the interaction score [5] was -0.00195 and the interaction score [6] was -0.802. For the same binder, the interaction score [7] was 0.334, the interaction score [8] was -0.414 and the interaction score [9] was -1.68. The interaction score [10] was -1.52, the interaction score [11] was -1.15 and the interaction score [12] was -1.06. For the same binder, the interaction score [13] was -0.754, the interaction score [14] was -0.619 and the interaction score [15] was -0.0348. The interaction score [16] was -0.638, the interaction score [17] was -1.01 and the interaction score [18] was 1.1. The interaction score [19] was 1.52, the interaction score [20] was 1.67 and the interaction score [21] was -0.09. The interaction score [22] was 0.355, the interaction score [23] was -1.55 and the interaction score [24] was 1.59. The interaction score [25] was -2.02, the interaction score [26] was -0.776 and the interaction score [27] was 1.63. The interaction score [28] was -0.0279, the interaction score [29] was -1.18 and the interaction score [30] was -1.42. It also gave an interaction score [31] of -1.48, an interaction score [32] of 1.66 and an interaction score [33] of -1.67. The interaction score [34] was -1.55, the interaction score [35] was 1.4 and the interaction score [36] was 1.57. For the same binder, the interaction score [37] was 0.0606, the interaction score [38] was -0.69 and the interaction score [39] was -1.8.

Work on DEAAALEAELAANEAKLAAIKAKLAAIKG [APC2811-AA] yielded an interaction score [40] of -1.61, an interaction score [41] of -1.74 and an interaction score [42] of -1.88. For the same binder, the interaction score [43] was 0.341, the interaction score [44] was -1.78 and the interaction score [45] was -1.29. For the same binder, the interaction score [46] was -0.415, the interaction score [47] was -1.75 and the interaction score [48] was -1.65. It also gave an interaction score [49] of -1.57, an interaction score [50] of -1.68 and an interaction score [51] of -1.59. It also gave an interaction score [52] of -1.58, an interaction score [53] of -1.3 and an interaction score [54] of -1.68. It also gave an interaction score [55] of -0.812, an interaction score [56] of -1.67 and an interaction score [57] of -1.51. It also gave an interaction score [58] of -1.35.
